From a protein production outcome set (Wang et al. 2014)

Test: label from the status in PepcDB records

## MWPQDPSRKEVLRFAVSCRILTLMLQALFNAIIPDHHAEAFSPPRLAPSGFVDQLVEGLLGGLSHWDAEHFLFIAEHGYLYEHNFAFFPGFPLALLVGTELLRPLRGLLSLRSCLLISVASLNFLFFMLAAVALHDLGCLVLHCPHQSFYAALLFCLSPANVFLAAGYSEALFALLTFSAMGQLERGRVWTSVLLFAFATGVRSNGLVSVGFLMHSQCQGFFSSLTMLNPLRQLFKLMASLFLSVFTLGLPFALFQYYAYTQFCLPGSARPIPEPLVQLAVDKGYRIAEGNEPPWCFWDVPLIYSYIQDVYWNVGFLKYYELKQVPNFLLAAPVAILVAWATWTYVTTHPWLCLTLGLQRSKNNKTLEKPDLGFLSPQVFVYVVHAAVLLLFGGLCMHVQVLTRFLGSSTPIMYWFPAHLLQDQEPLLRSLKTVPWKPLAEDSPPGQKVPRNPIMGLLYHWKTCSPVTRYILGYFLTYWLLGLLLHCNFLPWT
  protein production: failed

## MTRTSKIAVIGGGMAGLAAAAGFDDAGFVVELYERQSYDSKRVNCGEAMTAVSKIPLEPTVENGFLNPLPAMEVEVYDGIDADRHRTGAGTFPAADTYITDRNVVEQSWAEQLSEKGVDIHENQSITRTDFHEFTDEYDLVVDATGQPSLSSKALGTTNEYSGYMVALNSDVEGDFTELYPNSRIILENYTGYSWAFPKTSQRANVGIGWTVSDRPSDYMKALREACKRNGWPVPSQERTNVAIIPEGPSLDPDRTYLPEHSVVRVGDAAGIANRLTGKGISQAVESGFLAAELANSGQLHNFPDSLYQRMKTEYIFATVVRYFLETRNPKVLGAAIRAAAGIDIEDVDRSPSTVLLRLLRHPVLFARIFSRRRVLNRVYGGMTNQWELIN
  protein production: failed

## MNDQVLRTQTDRRQLQQIIAGLTEGVILIEPDQRILWANEAALAMHGVDSLEGLGADTGEYRERFRLRYRNNHPLQEGQYPAERLVAGECFSDVVVEVFPAADEDTRWVHRVRGLVLTTPEDKPDCLVLILHDAT
  protein production: not failed

## MTPDDFDRFWPTFQAIVQARETYAFDPALSFEQARQLWLELPLHTLLAEEDGELLGSYYLKPNAAGPGAHVGNCGYMVCEQARGRGVARLMCEHSQKLARQEGFLALQFNSVVASNEVAVALWHKLGFETVGRLPKAYRHARLGLVDCLVMYKWLAD
  protein production: failed

## MNSAVGAELFMGDDGVSLRPGLGGTESVLESWRYIMGKLRVGRFLISSRVNGPGRRFVIWFQGCPIRCRGCLNPEFHDEDGGHLIETARLVDMIRDLRDEIEGVTFTGGEPLAQAMELVKLAGAVKSMGLTVVCFTGYEMDEILKGNIEGGLELLEFVDVLIDGPYIEEKSAPLLWRGSTNQDVYFLTERYAEFRDRVMACSEMEAELKVGADGVYMTGIFDVEFWEELRRRLGDGSLEHHHHHH
  protein production: failed

## MLQRLFIFLLIFLILPDIYLYLRFIVHLTAKRWLRILYWLPAFLLSAGLLYLVYFSNNAFAERHTQAIGWFSIFFFLFTAPKLLLSLCTIIGVPFHKWLRWPRTPFICTGLTLAVISIVMIIYGSFIGRTQFDVKEVTYSSPKLPSAFDGYRIVQLSDIHIGSWQGNASAIQKLVKLVNEQQADLIVFTGDLVNHRAVELNDFQDILAGLKAKDGVYSILGNHDYGPYFHWKSKDEQDDNLNDLLQRQAAMGWKLLNNSHTILIQGSDSIALIGVENEGEPPFSQYADLPEAMRGTEGMFQILLSHNPTHWRREVLPQTYIDLMLAGHTHAMQLKFGNHSPSSYIYPEWSGMYLEGTRGLYVNEGIGYVGLPFRFGAWPEITVLTLRQ
  protein production: failed

## MIDFNDIPQPEAQDRQARREEIRAALLARLESVLFALLPAGKKRGGKFLIGDVLGSPGDSLEVVLDGEKAGLWTDRATGDGGDIFGLIAAHLGADVHADFPRVLDVAADLVGRAHPAPPRKARSAPPVDGLGPATAKWDYFDPAGKLIAVVYRYDPPGRKKEFRPWDARRRKMAPPEPRPLYNQPGLVAADTVVLVEGEKCAQALIDIGVAATTAMHGANAPVDKTDWSPLAGKAVLIWPDRDKPGWEYAMAAAQAALAVGAMSCDVLLPPDDRSEGWDAADAVAEGFDVAGFLAFGPRMSIKPASVTPTQEPSVWATDDALALAFTSRYAEDWRYCAAWGKWLVWDGRRWQADETLLVHHLIRAICREAALKADSHRLAAKLAASSTVGGVERLARTDRRHASTSEEWDADLFALNTPSGIVDLKTGRIKPHDRRERMTKLATATPHGDCARWRAFLEDITGGDTALQAYLQRMVGYCLTGATSAHALFFLYGTGANGKSVFVNTLATILGDYATSAPMDTFMEARGDRHPTDLAGLRGARFVSSIETEQGRRWNESKVKAITGGDKVSARFMRQDFFEYLPQFKLVIAGNHKPAIRNVDEAMKRRLHLIPFTVTIPPEKRDGQLTEKLLAERDGILAWAVEGCLAWQRDGLNPPASVVSATEEYFDEEDAIGDFLDEEAQRFEQARVAVADVFQRWQEWATRRGEYVGTSRWLAQQLANRGFGRARLHGGVKGLAGLSLKPRDYGTRLPYRDD
  protein production: failed
